Laboratory results: article PMC9307593

Columns and labels:
[1] = biological target: recombinant PARP1
[2] = biological target: PARP1-Flag; assay: proximity ligation; MiaPaCa-2 cells transfected with PARP1-Flag; mouse anti-Flag and rabbit anti-NUPR1 antibodies; untreated or 24 h with ZZW-115 1.5 uM, 5-FU 10 uM, olaparib 25 uM or 5-FU + olaparib; foci counted with ImageJ

B1: recombinant wild-type NUPR1 (natural protein)
chain: MATFPPATSAPQQPPGPEDEDSSLDESDLYSLAHSYLGGGGRKGRTKREAAANTNRPSPGGHERKLVTKLQNSERKKRGARR
With B1 the inhibition of PARP1 enzymatic activity in an acellular PARP1 activity assay with 2 and 4 µM rNUPR1 (26.5% at 2 µM, 48.4% at 4 µM) [1] was 48.4%.

B2: NUPR1 (detected with the anti-NUPR1 antibody in MiaPaCa-2 cells) (natural protein)
chain: MATFPPATSAPQQPPGPEDEDSSLDESDLYSLAHSYLGGGGRKGRTKREAAANTNRPSPGGHERKLVTKLQNSERKKRGARR
B2 gave a PLA foci/cell (cells treated with 5-FU) [2] of 94.7 foci/cell, a PLA foci/cell (cells treated with ZZW-115) [2] of 12.5 foci/cell and a PLA foci/cell (control condition) [2] of 59.5 foci/cell.
